According to US7799901B2, “Modulators of the function of FAS receptors and other proteins” (Yeda Research and Development Co. Ltd., priority 1995, dated 2010):

How the values were obtained:
[1] = system: FAS-R mediated cell death in HeLa cells; experiment: Anti-FAS-R antibody (CH-11) induced death of HeLa cells co-expressing FAS-R, neutral-red uptake; type: cell-based; conditions: co-expression with human FAS-R in HeLa HtTA-1; CH-11 antibody plus 10 μg/ml cycloheximide
Excerpt: In another set of experiments to analyze the region of the MORT-1 protein involved in the binding to the FAS-IC, the following proteins were expressed transiently in HeLa cells that contain a tetracycline-controlled transactivator (HtTA-1), using a tetracycline-controlled expression vector (pUHD10-3): Human FAS-R alone; Human FAS-R as well as the N-terminal part of MORT-1 (amino acids 1-117, the “MORT-1 head”); Human FAS-R as well as the C-terminal part of MORT-1, which contains its ‘death domain’ homology region (amino acids 130-245, the “MORT-1 DD”); FLAG-55.11 (amino acids 309-900 of protein 55.11 fused at the N-terminus to the FLAG octapeptide, the protein 55.11 being a p55-IC-specific binding protein. Twelve hours after transfection, the cells were trypsinized and re-seeded at a concentration of 30,000 cells/well. After 24 hrs further incubation, the cells were treated for 6 hrs with a monoclonal antibody against the extracellular domain of FAS-R (monoclonal antibody CH-11, Oncor, Gaithersburg, Md., USA) at various concentrations (0.001-10 μg/ml monoclonal antibody), in the presence of 10 μg/ml cycloheximide. Cell viability was then determined by the neutral-red uptake assay and the results were presented in terms of % viable cells as compared to cells that had been incubated with cycloheximide alone (in the absence of anti-FAS-R monoclonal antibody CH-11). […]

MORT-1 = molecular target: T1, MORT-1 (Homo sapiens, UniProt Q13158, G32V); experiment: Two-hybrid test (FIG. 1), binding to full-length MORT-1; set-up: expressed in transfected cells; host or cells: SFY526 yeast
T1 sequence (Q13158 with tags, fused parts or gaps G32V): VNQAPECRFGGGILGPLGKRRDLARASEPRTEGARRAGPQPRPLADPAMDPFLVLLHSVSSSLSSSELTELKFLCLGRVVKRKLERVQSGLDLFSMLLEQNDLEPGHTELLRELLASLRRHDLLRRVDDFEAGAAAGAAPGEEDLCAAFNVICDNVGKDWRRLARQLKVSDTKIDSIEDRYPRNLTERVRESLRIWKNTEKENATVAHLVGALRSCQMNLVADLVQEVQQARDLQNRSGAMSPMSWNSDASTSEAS
Excerpt: (§1) To isolate proteins interacting with the intracellular domain of the FAS-R, the yeast two-hybrid system was used (Fields and Song, 1989). […] In this system, the genes for the candidate interacting proteins are cloned into separate expression vectors. In one expression vector, the sequence of the one candidate protein is cloned in phase with the sequence of the GAL4 DNA-binding domain to generate a hybrid protein with the GAL4 DNA-binding-domain, and in the other vector, the sequence of the second candidate protein is cloned in phase with the sequence of the GAL4 activation domain to generate a hybrid protein with the GAL4-activation domain. The two hybrid vectors are then co-transformed into a yeast host strain having a lacZ or HIS3 reporter gene under the control of upstream GAL4 binding sites. Only those transformed host cells (cotransformants) in which the two hybrid proteins are expressed and are capable of interacting with each other, will be capable of expressing the reporter gene. In the case of the lacZ reporter gene, host cells expressing this gene will become blue in color when X-gal is added to the cultures.
(b) retransforming the plasmid DNA and original FAS-IC hybrid plasmid and control plasmids described in (a) into yeast host cells of strain SFY526 and determining the LACZ^+ activity (effectivity of β-gal formation, i.e., blue color formation).
In FIG. 1, there is depicted the interaction of the proteins encoded by the Gal4 DNA binding domain and activation-domain constructs (pGBT9 and pGAD-GH) within transfected SFY526 yeasts as assessed by β-galactosidase expression filter assay. The DNA-binding-domain constructs included four constructs of the human Fas-IC, four constructs of the mouse Fas-IC including two full-length constructs having […] or Ile to Ala replacement mutations at position 225 (I225N and I225A, respectively), and three MORT-1 constructs, all of which are shown schematically on the left hand side of FIG. 1. […]

FAS-IC = molecular target: T2, FAS-IC (Homo sapiens, UniProt P25445); experiment: Two-hybrid test (FIG. 1), binding of MORT-1 fragments to FAS-IC
T2 construct: the FAS-IC extends-from amino acid residues 175-319 of the intact FAS-R; expressed in transfected cells; host or cells: SFY526 yeast
T2 sequence (P25445 191-335): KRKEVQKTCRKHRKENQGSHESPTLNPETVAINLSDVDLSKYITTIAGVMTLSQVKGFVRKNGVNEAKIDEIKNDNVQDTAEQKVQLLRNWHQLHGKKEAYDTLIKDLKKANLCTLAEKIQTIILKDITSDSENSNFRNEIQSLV
Excerpt: as §1, with “cultures. […]” for “cultures.”
In FIG. 1, there is depicted the interaction of the proteins encoded by the Gal4 DNA binding domain and activation-domain constructs (pGBT9 and pGAD-GH) within transfected SFY526 yeasts as assessed by β-galactosidase expression filter assay. […]

[2] = system: p55-R-induced cytotoxicity in 293-EBNA cells; experiment: Death of 293-EBNA cells induced by over-expression of p55-R; type: cell-based, human; conditions: co-transfection
Protocol: (§2) In brief, 293-EBNA cells, MCF7 human breast carcinoma cells and HeLa HtTA-1 cells were grown in Dulbecco's modified Eagle's minimal essential medium supplemented with 10% fetal calf serum, nonessential amino acids, 100 U/ml penicillin and 100 μg/ml streptomycin. Cell tissue culture dishes (5×10^5 293-EBNA cells, 3×10^5 s MCF7 cells or 3×10^5 HeLa cells in 6-cm dishes) were transiently transfected, using the calcium phosphate precipitation method, with the cDNAs of the indicated proteins together with the β-galactosidase expression vector. In the experiments presented in FIGS. 14A-D and 15, each dish was transfected with 3.5 μg of the indicated MACH construct and 1.5 μg of pSV-β-gal. In the experiments presented in FIGS. 16A-D and 17-19, each dish was transfected with 2.5 μg of the indicated MACH or MORT1 construct (or, as control, empty vector) and 1.5 μg of pSV-β-gal. The cells were rinsed 6 to 10 h after transfection. The 293-EBNA and MCF7 cells were incubated for a further 18 h without additional treatment. […] The extent of cell death at the end of the incubation periods was assessed by determination of β-galactosidase expression, as described by Kumar et al, 1994. […]
(§3) In particular, FIGS. 16A-D show morphology of 293-EBNA cells in which cell death was induced by transient expression of a chimera comprised of the extracellular domain of the p55-R (amino acids 1-168) fused to the transmembrane and intracellular domains of Fas/APO1 (amino acids 153-319) (p55-Fas chimera) (FIGS. 16A and 16B), or by expression of the p55-R (FIGS. 16C and 16D), and of cells that were protected from these cytotoxic effects by their simultaneous transfection with MACHα1 (C360S) (FIGS. 16B and 16D). […] FIG. 17 illustrates the quantification of death induced in 293-EBNA cells by their transfection with p55-Fas chimera or with p55-R, together with an empty vector, a MORT1 deletion mutant lacking the MACH-binding region (MORT1 (92-208)), or MACHα molecules containing a nonfunctional CED3/ICE region. […] Data are from at least two independent experiments and are expressed as in FIGS. 14A-F and 15.

[3] = system: Fas/APO1-induced death of HeLa cells; experiment: Death of HeLa cells expressing Fas/APO1 induced by anti-Fas/APO1 antibody and cycloheximide; type: cell-based, human; conditions: HeLa cells transiently expressing Fas/APO1, CH11 0.5 μg/ml, cycloheximide 10 μg/ml
Protocol: (§4) In brief, 293-EBNA cells, MCF7 human breast carcinoma cells and HeLa HtTA-1 cells were grown in Dulbecco's modified Eagle's minimal essential medium supplemented with 10% fetal calf serum, nonessential amino acids, 100 U/ml penicillin and 100 μg/ml streptomycin. Cell tissue culture dishes (5×10^5 293-EBNA cells, 3×10^5 s MCF7 cells or 3×10^5 HeLa cells in 6-cm dishes) were transiently transfected, using the calcium phosphate precipitation method, with the cDNAs of the indicated proteins together with the β-galactosidase expression vector. In the experiments presented in FIGS. 14A-D and 15, each dish was transfected with 3.5 μg of the indicated MACH construct and 1.5 μg of pSV-β-gal. In the experiments presented in FIGS. 16A-D and 17-19, each dish was transfected with 2.5 μg of the indicated MACH or MORT1 construct (or, as control, empty vector) and 1.5 μg of pSV-β-gal. The cells were rinsed 6 to 10 h after transfection. The 293-EBNA and MCF7 cells were incubated for a further 18 h without additional treatment. The HeLa cells were incubated for 26 h after transfection and-then for 5 h in the presence of either anti-Fas.APO1 antibody (CH11, 0.5 μg/ml) or TNF (100 ng/ml), together with cycloheximide (10 μg/ml). The extent of cell death at the end of the incubation periods was assessed by determination of β-galactosidase expression, as described by Kumar et al, 1994.
The HeLa cells were made responsive to Fas/APO1 by transient expression of this receptor. […] These protective effects indicate that MACHα is a necessary component of both the Fas/APO1- and the p55-R-induced signaling cascades for cell death.
In particular, FIGS. 16A-D show morphology of 293-EBNA cells in which cell death was induced by transient expression of a chimera comprised of the extracellular domain of the p55-R (amino acids 1-168) fused to the transmembrane and intracellular domains of Fas/APO1 (amino acids 153-319) (p55-Fas chimera) (FIGS. 16A and 16B), or by expression of the p55-R (FIGS. 16C and 16D), and of cells that were protected from these cytotoxic effects by their simultaneous transfection with MACHα1 (C360S) (FIGS. 16B and 16D). Photographs were taken 26 h after transfection. FIG. 17 illustrates the quantification of death induced in 293-EBNA cells by their transfection with p55-Fas chimera or with p55-R, together with an empty vector, a MORT1 deletion mutant lacking the MACH-binding region (MORT1 (92-208)), or MACHα molecules containing a nonfunctional CED3/ICE region. […] Data are from at least two independent experiments and are expressed as in FIGS. 14A-F and 15.

[4] = system: TNF-induced death of HeLa cells; experiment: Death of HeLa cells induced by TNF and cycloheximide; type: cell-based, human; conditions: TNF 100 ng/ml, cycloheximide 10 μg/ml
Protocol: as §4, with “1994. […]” for “1994.”

[5] = system: Fas/APO1 cytotoxicity (p55-Fas chimera) in 293-EBNA cells; type: cell-based, human; conditions: co-transfection
Protocol: as §2, §3

[6] = system: human embryonic kidney 293-EBNA cells; experiment: Cell death on overexpression of MACH isoforms in 293-EBNA cells; type: cell-based; conditions: β-galactosidase-expressing cells with apoptopic morphology, 20 h after transfection
Protocol: To explore the involvement of MACH in cell-death induction, the effect of overexpression of various MACH isoforms on cell viability was examined. The test was performed by transfecting MACH expression vectors together with a β-galactosidase expression vector as a transfection marker into human embryonic kidney 293-EBNA cells and breast carcinoma MCF7 cells.
as §4
In particular, FIGS. 14A-D show the morphology of human embryonic kidney 293-EBNA cells transiently expressing the indicated MACH isoforms. The arrows (FIG. 14B) point to apoptopic cells. Photographs were taken 26 h after transfection. […] Data are from three independent experiments with the 293-EBNA cells and two independent experiments with the MCF7 cells.

B1: fragment corresponding to residues 130-245: C-terminal part of MORT-1 containing its death domain homology region, amino acids 130-245 (protein)
chain: FEAGAAAGAAPGEEDLCAAFNVICDNVGKDWRRLARQLKVSDTKIDSIEDRYPRNLTERVRESLRIWKNTEKENATVAHLVGALRSCQMNLVADLVQEVQQARDLQNRSGAMSPMS
effect on FAS-induced (FAS-R mediated) cell death [1]: strongly interferes | binding to full-length MORT-1 in two-hybrid test (MORT-1): does not bind | binding to FAS-IC / FAS-R in two-hybrid test (FAS-IC): binds

B2: MORT1 (92-208) (protein, UniProt Q13158 92-208, looked up, fragment)
chain: PGEEDLCAAFNVICDNVGKDWRRLARQLKVSDTKIDSIEDRYPRNLTERVRESLRIWKNTEKENATVAHLVGALRSCQMNLVADLVQEVQQARDLQNRSGAMSPMSWNSDASTSEAS
protection against p55-R-induced cytotoxicity [2]: protection was also observed | protection against death induced by anti-Fas/APO1 antibody and cycloheximide [3]: protection was also observed | protection against death induced by anti-Fas/APO1 antibody and cycloheximide ([3]; listed as MORT1DD (92-208)): prevention | protection against death induced by TNF and cycloheximide [4]: protection was also observed | protection against Fas/APO1 cytotoxicity (p55-Fas chimera) [5]: protection was also observed

B3: MACHα2: MACH isoform, cDNA SEQ ID NO: 17, amino acid SEQ ID NO: 18 (protein)
chain: MDFSRNLYDIGEQLDSEDLASLKFLSLDYIPQRKQEPIKDALMLFQRLQEKRMLEESNLSFLKELLFRINRLDLLITYLNTRKEEMERELQTPGRAQISAYRVMLYQISEEVSRSELRSFKFLLQEEISKCKLDDDMNLLDIFIEMEKRVILGEGKLDILKRVCAQINKSLLKIINDYEEFSKGEELCGVMTISDSPREQDSESQTLDKVYQMKSKPRGYCLIINNHNFAKAREKVPKLHSIRDRNGTHLDAGALTTTFEELHFEIKPHDDCTVEQIYEILKIYQLMDHSNMDCFICCILSHGDKGIIYGTDGQEAPIYELTSQFTGLKCPSLAGKPKVFFIQACQGDNYQKGIPVETDSEEQPYLEMDLSSPQTRYIPDEADFLLGMATVNNCVSYRNPAEGTWYIQSLCQSLRERCPRGDDILTILTEVNYEVSNKDDKKNMGKQMPQPTFTLRKKLVFPSD
cell death of transfected 293-EBNA cells [6]: massive cell death
